This passage reports IC50 results from patent US20220372114A1 (published 2022).

One test addresses SARS-CoV-1 Spike (SARS-CoV-1, UniProt P59594 14-1195). Kind of test: ELISA.
Test [1] deals with SARS-CoV-2 (WIV02 isolate) prefusion stabilized spike trimer protein (UniProt P0DTC2 14-1213). Kind of test: ELISA.

Changes are numbered by the printed parent chain.

B1: 6-O12-A (antibody, V domains shown)
VH: QVQLQQPGTELVKPGASVKLSCKASGYTFTSYWMHWVKQRPGQGLEWIGNINPSNGGTNYNEKFRSKATLTVDKSSSTAYMQLSSLTSEDSAVYYCARLGWFLPLGSWGQGTTLTVSS
VL: QIVLTQSPAIMSASLGEVITLTCSASSSVSYMHWYQQKSGTSPKLLIYSTSNLASGVPSRFSGSGSGTFYSLTISSVEAEDAADYYCHQWSGYMYTFGGGTKLEIK
As for B1, the IC50 with SARS-CoV-1 Spike came to 5.4 nM; in test [1], 7.62 nM.

B2: 8-L17-A (antibody, V domains shown)
VH: EVQLVESGGGLVQPKGSLKLSCAASGFTFNTYAMHWVRQAPGKGLEWVARIRSKSSNYARYYADSVKDRFTISRDDSQSMLYLQMNNLKTEDTAMYYCVRDHDYYGSSYWFAYWGQGTLVTVSA
VL: DVVMTQTPLSLPVSLGDQASISCRSSQSLVHNNGNTYLHWYLQKPGQSPKLLIYKVSNRFSGVPDRFSGSGSGTDFTLKISRVEAEDLGVYFCSQSTHVPWTFGGGTKLEIK
For the molecule B2, inhibition in test [1] was half-maximal at 60.8 nM (IC50).

B3: 8-H3-A (antibody, V domains shown)
VH: B2 VH with R60T, A112T
VL: B2 VL with N32D, Y41F, A85T
B3 yielded an IC50 in test [1] of 19.4 nM.

B4: 2-P2-A (antibody, V domains shown)
VH: EVQLQQSGAELVRPGSSVKMSCKTSGYTFTSYGINWVKQRPGQGLEWIGYIYIGNGYTEYNEKFKGKATLTSDTSSSTAYMQLSSLTSEDSAIYFCARGGVDYWGQGTTLTVSS
VL: B2 VL with V3L, L29I, N32S, H39E, F92Y, S94F, S96G, T97S, W101Y
In the test with SARS-CoV-1 Spike, B4 showed an IC50 of 17.9 nM.

B5: 8-A17-A (antibody, V domains shown)
VH: QVQLKESGPGLVAPSQSLSITCTVSGFSLTSYAISWVRQPPGKGLEWLGVVWPGGGTNYNSALKSRLSINKDNSKSQVFLKMNSLQTDDTGRYYCARTGYHFDYWGQGTTLTVSS
VL: QIVLTQSPAIMSASPGEKVTMTCSVSSSVSYMHWYQQKSGTSPKRWIYDTSKLASGVPARFSGSGSGTSYSLTISSMEAEDAATYYCQQWSSNPPMYTFGGGTKLEIK
For B5, in the test with SARS-CoV-1 Spike, the 50% inhibitory concentration (IC50) came out at 5.1 nM.

B6: 2-O12-A (antibody, V domains shown)
VH: EVQLQQSGPELVKPGASVKISCKASGYTFTDYYMNWVKQSHGKSLEWIGDINSNNGGTTYDQKFKGKATLTVDRSSSTAYMELRSLTSEDSAVYYCARRGDGHFGGFTYWGQGTLVTVSA
VL: not shown
On to B6, for which the midpoint of inhibition in test [1], the IC50, lay at 14.9 nM.

B7: 3-E2-A (antibody, V domains shown)
VH: B6 VH with S53P, T59S, D61T, R74K, T78K, F104Y
VL: not shown
In test [1], B7 yielded an IC50 of 18.4 nM.

B8: 1-L10-A (antibody, V domains shown)
VH: EVKLEESGGGLVQPGGSMKLSCVASGFTFNNYWMNWVRQSPEKGLEWVAQMRLKSDNYATHYAESVKGRFTISRDDSKSSVYLQMNNLRAEDTGIYYCIEGYWTYWGQGTLVTVSA
VL: QIVLTQSPAIMSASLGERVTMTCTASSSVSSSYLHWYQQKPGSSPKLWIYSTSNLASGVPARFSGNGSGTSYSLTISSMEAEDAATYYCLQYHRSPPYTFGGGTKLEIK
In the case of B8, the IC50 in the test with SARS-CoV-1 Spike amounted to 7.5 nM; in test [1], 8.65 nM.

B9: 4-L4-A (antibody, V domains shown)
VH: QAYLQQSGAELVRPGASVKMSCKASGYTFTSYTVHWVKQTPRQGLEWIGGIYPGNVDTSYNQNFKGKATLTVDKSSSTAYMQLSSLTSEDSAVYFCARDGYYAMDYWGQGTSVTVSS
VL: not shown
Molecule B9 gave a 50% inhibitory concentration (IC50) in test [1] of 8.34 nM.

B10: 3-P7-A (antibody, V domains shown)
VH: QAYLQQSGAELVRPGASVKMSCKASGYTFTSYSMHWVKQTPRQGLEWIGAIYPGNDDTSYNQKFKGKATLTVDKSSSTAYMQLSSLTSEDSAVYFCTRDYTNYPFDYWGQGTTLTVSS
VL: DIVLTQSPASLPVSLGQRATISCRASKSVSTSGYSYMHWYQQRPGQPPKLLIYLASNLESGVPARFSASGSGTDFTLNIHPVEEEDAATYYCQHSRELPPTFGGGTKVEIK
In turn, B10 showed an IC50 in test [1] of 8.86 nM.

B11: 2-H7-A (antibody, V domains shown)
VH: QAYLQQSGAELVRPGASVKMSCKASGYTFTGYTMHWVKQTPRQGLEWIGAIYPENGDTSYNQKFKGKATLTVDKSSSTAYMQLSSLTSEDSAVYFCARDGYDVLYGMDYWGQGTSVTVSS
VL: B10 VL with P12A, R43K, A68G, P100W, V108L, E109D
For the molecule B11, the 50% inhibitory concentration (IC50) in test [1] came to 7.21 nM.

B12: 2-G20-A (antibody, V domains shown)
VH: EVQLQQSGPELVKPGASVKMSCKASGYTFPSYVLHWVKQKPGQGLEWIGYIYPYNDGTNYNEKFKGKATLTSDKSSSTAYMELSSLTSEDSAVYYCARGDYGDSAWFPYWGQGTLVTVSA
VL: B10 VL with P12A, R43K, E59K, A68G, S69G, H94L, P100W, V108L
Consider B12, for which the IC50 with SARS-CoV-1 Spike stood at 6.65 nM; in test [1], 18.3 nM.

B13: 9-K4-A (antibody, V domains shown)
VH: B10 VH with T30P, S31N, M34F, K63R, T97A, T101S, Y107C
VL: B10 VL with P12A, R43K, A68G, V108L
The molecule B13 displayed an IC50 in test [1] of 72.6 nM.

B14: 10-O24-A (antibody, V domains shown)
VH: B10 VH with K74R, T101S
VL: B10 VL with P12A, S14F, A68G, V108L
B14 displayed a concentration for half-maximal inhibition (IC50) in test [1] of 5.84 nM.

B15: 4-M3-A (antibody, V domains shown)
VH: EVQLQQSGPELVKPGDSVKISCKASGYSFTGYFMNWVMQSHGKSLEWIGRINPNNGETFYNQKFKGKATLTVDKSSDTAHMELRSLTSEDSAVYYCARGGTGTGWGQGTTLTVSS
VL: DILMTQSPSSMSVSLGDTVSITCHASQGISSNIGWLQQKPGKSFKGLIYYGTNLEDGVPSRFSGSGSGADYSLTISSLESEDLADYYCIQYAQFPYTFGGGTKLEIK
For the molecule B15, half-maximal inhibition in test [1] (IC50) was put at 7.36 nM.

B16: 4-N22-A (antibody, V domains shown)
VH: QVQLQQPGTELVKPGASVKLSCKASGYTFTNYWMYWVKQRPGQGLDWIGNINPSNGGTNYNEKFKSKATLTVDKSSSTAYMQLSSLTSEDSAVYYCARETGNYWGQGTTLTVSS
VL: B15 VL with T22S, Y50H, L83F, I89V
In turn, B16 displayed an IC50 in test [1] of 4.93 nM.

B17: 1-B11-A (antibody, V domains shown)
VH: QVQLQQSGPELVKPGASVKISCKASGYTFTDHYINWVKQRPGQGLEWIGWIFPGSGSTYYNEQFKGKATLTVDKSSNTAYMLLSSLTSEDSAVYFCARSGGLRLGFAYWGQGTLVTVSA
VL: DIQMTQTTSSLSASLGDRVTISCRASQDISNYLNWYQQKPDGTVKLLIYYTSRLHSGVPSRFSGSGSGTDYSLTISNLEQEDISTYFCQQVNTLPYTFGGGTKLEIK
For B17, the IC50 in the test with SARS-CoV-1 Spike came out at 20.9 nM.

B18: 10-B13-A (antibody, V domains shown)
VH: QVQLQQSGAELVKPGASVKISCKASGYAFSNYWMNWVKQRPGKGLEWIGQIYPGDGDTNYNGNFKGKATLTADKSSSTAYIQLSSLTSEDSAVYFCGRGFIATVVEVFDHWGLGTTLTVSS
VL: B17 VL with H55Q, S67T, S84A, V91G, Y96W
Turning to B18, it took 19.4 nM to reach half-maximal inhibition in the test with SARS-CoV-1 Spike (IC50).

B19: 9-F6-A (antibody, V domains shown)
VH: EVQLQQSGPELVKPGASVKMSCKASGYTFTSYIMHWVKQKPGQGLEWIGYILPYNDGTKYNEKFKGKATLTSDKSSSTAYMELRSLTSEDSAVYYCARWGYSNFLDSWGQGTTLTVSS
VL: B17 VL with S30N, S76R, S84A, V91G, Y96P
On to B19, for which the IC50 was found to be 5.55 nM with SARS-CoV-1 Spike and 16.7 nM in test [1].

B20: 8-H5-A (antibody, V domains shown)
VH: QVTLKESGPGILQSSQTLSLTCSLSGFSLSTSGMGVSWVRQPSGKGLEWLAHIYWDDDKRYTPSLKSRLTISTDSSRKQVFLKITSVDTADTATYYCARRDLHDYDGWFAYWGQGTLVTVSA
VL: DIVMTQSQKFMSTAVGDRVSVTCKASQNVGTNVAWYQQKPGQSPKALIYSASFRYSGVPDRFSGSGSGTDFTLTISNVQSEDLAEYFCQQYNSYPLTFGSGTKLEIK
As to B20, in test [1], inhibition was half-maximal at 12.8 nM (IC50).
